This is an account of results in EP4473018A2 (dated 2024).

Assay [1] addresses T1, Recombinant truncated human his-tag B7-H3 protein (amino acids 1-461 of SEQ ID NO:1 with a carboxy terminal … (human, UniProt Q5ZPR3 29-461)).
T1 construct: also called his-tagged B7-H3 protein; recombinant human his-tagged B7-H3 protein
T1 sequence: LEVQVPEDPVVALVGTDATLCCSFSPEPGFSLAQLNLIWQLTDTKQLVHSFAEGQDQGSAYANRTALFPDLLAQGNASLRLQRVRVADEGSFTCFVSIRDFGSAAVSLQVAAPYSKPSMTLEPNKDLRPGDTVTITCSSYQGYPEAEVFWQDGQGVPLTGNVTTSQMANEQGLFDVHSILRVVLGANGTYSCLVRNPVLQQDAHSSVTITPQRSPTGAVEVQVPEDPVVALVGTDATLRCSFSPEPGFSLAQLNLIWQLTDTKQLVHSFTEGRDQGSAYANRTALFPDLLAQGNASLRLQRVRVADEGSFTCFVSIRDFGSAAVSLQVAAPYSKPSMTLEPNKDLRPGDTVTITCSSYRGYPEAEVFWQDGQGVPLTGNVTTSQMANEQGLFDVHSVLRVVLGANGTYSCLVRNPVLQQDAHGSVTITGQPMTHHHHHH
Description: SPR (BIAcore 3000), antibody captured by anti-human Fc, his-tagged B7-H3 as analyte from 100 nM, 1:1 model.

For the next assay, the target named is T2, human B7-H1 (human, UniProt Q9NZQ7 19-239).
T2 construct: Bought protein; also called PD-L1; CD274
Description: ELISA, antigen coated at 50 ng/well, antibody serially diluted.

Another assay has as its target T3, human B7-H5 (human, UniProt Q9H7M9 33-194).
T3 construct: Bought protein; also called VISTA; GI24
Described as above.

The next assay has as its target T4, human B7-H4 (human, UniProt Q7Z7D3 25-258, limits assumed).
T4 construct: Bought protein; also called B7S1; B7x
T4 sequence (looked up): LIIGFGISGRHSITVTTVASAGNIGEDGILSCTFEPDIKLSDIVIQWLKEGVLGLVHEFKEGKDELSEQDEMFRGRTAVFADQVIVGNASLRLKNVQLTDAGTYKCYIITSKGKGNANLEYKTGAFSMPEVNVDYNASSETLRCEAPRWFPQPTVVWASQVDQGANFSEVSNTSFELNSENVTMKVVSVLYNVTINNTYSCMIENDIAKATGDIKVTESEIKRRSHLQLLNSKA
Described as above.

Another assay concerns the target T5, human B7-H2 (human, UniProt O75144 19-258, limits assumed).
T5 construct: Bought protein; also called ICOSL
T5 sequence (looked up): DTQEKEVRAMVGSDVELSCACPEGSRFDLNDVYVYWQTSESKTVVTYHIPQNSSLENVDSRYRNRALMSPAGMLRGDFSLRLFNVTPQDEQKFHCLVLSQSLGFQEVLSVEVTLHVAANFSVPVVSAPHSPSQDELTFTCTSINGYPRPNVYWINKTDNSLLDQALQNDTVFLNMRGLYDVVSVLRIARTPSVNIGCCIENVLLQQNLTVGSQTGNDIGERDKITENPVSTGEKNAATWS
Described as above.

For another assay, the target named is T6, human B7-H7 (human, UniProt Q9UM44 23-344).
T6 construct: Bought protein; also called HHLA2
T6 sequence (looked up): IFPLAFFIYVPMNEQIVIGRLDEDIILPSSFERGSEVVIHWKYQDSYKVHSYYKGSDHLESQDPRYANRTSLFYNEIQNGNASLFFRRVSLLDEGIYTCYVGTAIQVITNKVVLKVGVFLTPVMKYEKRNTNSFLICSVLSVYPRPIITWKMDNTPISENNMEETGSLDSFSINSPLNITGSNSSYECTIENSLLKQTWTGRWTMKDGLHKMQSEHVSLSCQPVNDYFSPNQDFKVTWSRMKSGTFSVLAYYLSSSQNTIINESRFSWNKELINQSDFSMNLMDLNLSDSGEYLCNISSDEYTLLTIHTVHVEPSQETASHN
The description is as above.

Another assay has as its target T7, human B7.1 (human, UniProt P33681 35-242).
T7 construct: Bought protein; also called CD80
T7 sequence (looked up): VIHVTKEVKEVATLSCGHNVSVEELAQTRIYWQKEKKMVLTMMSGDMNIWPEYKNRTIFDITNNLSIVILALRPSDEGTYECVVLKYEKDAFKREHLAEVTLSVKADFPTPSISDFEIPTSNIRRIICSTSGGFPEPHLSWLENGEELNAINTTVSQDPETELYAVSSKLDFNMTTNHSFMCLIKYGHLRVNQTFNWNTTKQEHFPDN
The description is as above.

The target of the next assay is T8, human B7-H6 (human, UniProt Q68D85 25-262).
T8 construct: Bought protein; also called NCR3LG1
T8 sequence (looked up): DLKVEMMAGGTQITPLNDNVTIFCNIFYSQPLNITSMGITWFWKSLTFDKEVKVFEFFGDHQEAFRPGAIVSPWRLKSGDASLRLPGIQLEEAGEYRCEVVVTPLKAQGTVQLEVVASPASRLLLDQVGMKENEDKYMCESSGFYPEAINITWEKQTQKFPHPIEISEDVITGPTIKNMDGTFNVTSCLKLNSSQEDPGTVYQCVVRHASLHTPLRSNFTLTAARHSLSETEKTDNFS
The description is as above.

Another assay has as its target T9, human B7.2 (human, UniProt P42081 24-247, limits assumed).
T9 construct: Bought protein; also called CD86
T9 sequence (looked up): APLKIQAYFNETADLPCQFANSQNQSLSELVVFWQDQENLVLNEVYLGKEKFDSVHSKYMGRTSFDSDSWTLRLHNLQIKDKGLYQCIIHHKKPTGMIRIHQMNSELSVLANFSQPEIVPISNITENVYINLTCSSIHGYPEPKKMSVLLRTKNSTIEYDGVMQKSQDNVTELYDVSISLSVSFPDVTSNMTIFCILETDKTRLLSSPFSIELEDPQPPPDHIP
Described as above.

In assay [2] the target is T10, rat B7-H3 antigen protein (Sino Biologicals; Cat. No. 80380-R02H-20) (rat, UniProt Q7TPB4 29-248).
T10 construct: Bought protein
T10 sequence (looked up): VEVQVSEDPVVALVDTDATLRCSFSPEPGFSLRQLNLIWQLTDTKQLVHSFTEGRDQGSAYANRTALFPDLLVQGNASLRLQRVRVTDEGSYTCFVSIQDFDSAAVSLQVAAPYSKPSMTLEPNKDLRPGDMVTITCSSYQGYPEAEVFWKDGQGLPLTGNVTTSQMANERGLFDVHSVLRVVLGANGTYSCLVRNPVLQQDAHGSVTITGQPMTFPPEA
Briefly: ELISA, antigen coated at 50 ng/well.

T2 sequence (Q9NZQ7 19-239 limits assumed): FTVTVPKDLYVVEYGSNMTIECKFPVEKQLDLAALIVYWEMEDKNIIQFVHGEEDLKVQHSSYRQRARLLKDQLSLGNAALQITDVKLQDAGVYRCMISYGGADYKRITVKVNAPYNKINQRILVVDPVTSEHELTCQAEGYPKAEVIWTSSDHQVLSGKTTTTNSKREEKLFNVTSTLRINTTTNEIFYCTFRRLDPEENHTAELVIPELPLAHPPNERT

B1: B3-4F7 (antibody, V domains shown)
VH: QVQLVQSGAEVKKPGASVKVSCKASGYTFTSYGISWVRQAPGQGLEWMGWISAYNGNTNYAQKLQGRVTMTTDTSTSTAYMELRSLRSDDTAVYYCARDGYYGSGSHPWGQGTLVTVSS
VL: QSVVTQPPSVSGAPGQRVTISCTGNSSNIGAGYDVHWYQQLPGTAPKLLIYGNSNRPSGIPDRFSGSKSGTSATLGITGLQTGDEADYYCGTWDSSLSAGVFGTGTKVTVL
notes: It was captured by anti-human Fc
B1: the binding result in [1] is reported as “binds”.

B2: B3-A6 (antibody, V domains shown)
VH: QVQLQQSGPGLVKPSQTLSLTCAISGDSVSSNSAAWNWIRQSPSRGLEWLGRTYYRSKWYNDYAVSVKSRITINPDTSKNQFSLQLNSVTPEDTAVYYCAREGIAVAALWDWGQGTLVTVSS
VL: QAVLTQPPSASGTPGQRVTISCSGSSSNIGSNYVSWYQQLPGTAPKLLMYSNNHRPSGVPDRFSGSKSGTSASLAISGLRTEDEADYYCAAWDDSLSGQVFGGGTKLTVL
notes: It was captured by anti-human Fc, so it was tested as an antibody with a human Fc
For B2, in assay [1], the binding result is “binds”.

B3: B3-2E3 (antibody, V domains shown)
VH: QVQLVESGGGVVQPGRSLRLSCVASEFTFSSYTIHWVRQAPGKGLEWVAVISHDGSNKYYADSVKGRFTISRDNSKNTLYLQMSSLRAEDTAVYYCAGDRYVYNYYGMDVWGQGTTVTVSS
VL: DIVMTQSPSSLSAYVGDRVTITCRASQDIRTYLAWYQQKPGTAPKLLISGASILRSGVPSRFSGSGSGRDFTLSITSLQPEDFATYYCQQLYSYPPWTFGQGTKVEIK
notes: as for B1
B3: the binding result in [1] is “binds”.

B4: anti-B7-H3 antibody (VA clone) (antibody, V domains shown)
VH: QVQLVQSGAEVKKPGASVKVSCKASGYTFTDSYMHWVRQAPGQGLEWMGWISPRTGGTDYAQKFQGRVTMTRDTSISTAYMELSRLRSDDTAVYYCARGSSRGNDYWGQGTLVTVSS
VL: QSVLTQPASVSGSPGQSITISCTGTGSDVGGYNYVSWYQQHPGKAPKLIIYDVTKRPSGFSNRFSGSKSGNTASLTISGLQAEDEADYYCSSYTSRRTYVFGTGTKLTVL
notes: It was tested as a fully human IgG ('IgG protein', captured by anti-human Fc); also called B7-H3-VA; B7-H3 VA
On to B4, for which the binding result with human B7-H1, with human B7-H5, in the assay with human B7-H4, in the assay with human B7-H2, with human B7-H7 and in the assay with human B7.1 was “no binding” each time. The figures for the binding result (with human B7-H6; with human B7.2; in [2]) were “no binding”, “no binding” and “binds”, respectively.

B5: anti-B7-H3 antibody (VA LALA clone) (antibody, V domains shown)
VH: QVQLVQSGAEVKKPGASVKVSCKASGYTFTDSYMHWVRQAPGQGLEWMGWISPRTGGTDYAQKFQGRVTMTRDTSISTAYMELSRLRSDDTAVYYCARGSSRGNDYWGQGTLVTVSS
VL: QSVLTQPASVSGSPGQSITISCTGTGSDVGGYNYVSWYQQHPGKAPKLIIYDVTKRPSGFSNRFSGSKSGNTASLTISGLQAEDEADYYCSSYTSRRTYVFGTGTKLTVL
notes: also called B7-H3-VA LALA; B7-H3-VA-LALA
For the molecule B5, the binding result with human B7-H1, in the assay with human B7-H5, with human B7-H4, with human B7-H2, in the assay with human B7-H7 and with human B7.1 was “no binding” throughout. In addition, the binding result with human B7-H6 and with human B7.2 was “no binding” each time.

B6: B3-D1 (antibody, V domains shown)
VH: EVQLVQSGAELKKPGASVKVSCKASGHTFTSYYIHWVRQAPGQGLEWMGIINPSGDSTSYAQKFQGRVTMTRDTSTSTVYMELSSLTSEDTAVYYCARAIDYGGPYWYLDLWGRGTLVTVSS
VL: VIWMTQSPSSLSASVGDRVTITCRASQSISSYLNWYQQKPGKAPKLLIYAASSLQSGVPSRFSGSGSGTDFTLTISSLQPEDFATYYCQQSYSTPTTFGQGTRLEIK
notes: as for B1
For B6, the binding result in assay [1] was “binds”.

B7: B3-2H1 (antibody, V domains shown)
VH: QVQLQQSGAEVEKPGASVEVSCRASGYTFTSYYIHWVRQAPGQGLEWVGMITPLSGGTTYAQKFQGRVTMTRDTSTSTVYMNLSSLRSEDTAVYFCARGGRAVASSFEFWGQGTLVTVSS
VL: QSVLTQPRSVSGSPGQSVTISCTGTSSDVGGYNYVSWYQQHPGKAPKLMIYDVSKRPSGVPDRFSGSKSGNTASLTISGLQAEDEADYYCCSYAGSYTEVFGTGTKVTVL
notes: as for B1
On to B7, for which, in assay [1], the binding result is on record as “binds”.
